Experimental data taken from patent publication US20050037969A1 (ARBOR VITA, published 2005).
Ends that are not written are not given here. * marks the point of attachment. Biotin = O=C1N[C@H]2[C@H](CS[C@H]2CCCCC(=O)*)N1

Legend:
Assay in all cases: A/G assays
[1] = molecular target: T1, GST-cytohesin binding protein PDZ domain fusion protein (Homo sapiens (Human), UniProt O60759 74-165)
T1 construct: also called CBP; not shown: glutathione S-transferase encoded by vector pGEX-3X (Pharmacia)
T1 sequence: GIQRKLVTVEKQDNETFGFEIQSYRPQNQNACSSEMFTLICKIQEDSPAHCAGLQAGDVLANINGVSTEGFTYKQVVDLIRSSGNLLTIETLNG

[2] = molecular target: T2, GST-prIL16 fusion protein (PDZ domains 1-2) (Homo sapiens (Human), UniProt Q14005 1111-1324)
T2 construct: also called putative interleukin 16 precursor; not shown: glutathione S-transferase encoded by vector pGEX-3X (Pharmacia)
T2 sequence: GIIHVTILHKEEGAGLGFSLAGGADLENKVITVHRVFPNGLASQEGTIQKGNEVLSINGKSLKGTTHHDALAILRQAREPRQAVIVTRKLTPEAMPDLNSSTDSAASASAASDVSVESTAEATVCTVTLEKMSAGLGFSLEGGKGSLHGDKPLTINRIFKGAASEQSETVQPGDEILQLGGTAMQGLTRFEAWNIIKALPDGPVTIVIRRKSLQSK

[3] = molecular target: T3, GST-TIAM1 PDZ domain fusion protein (Homo sapiens (Human), UniProt Q13009 845-931)
T3 construct: also called TLAM1; T-lymphoma invasion and metastasis inducing protein 1; not shown: glutathione S-transferase encoded by vector pGEX-3X (Pharmacia)
T3 sequence (Q13009 other isoform, or with tags, fused parts or gaps): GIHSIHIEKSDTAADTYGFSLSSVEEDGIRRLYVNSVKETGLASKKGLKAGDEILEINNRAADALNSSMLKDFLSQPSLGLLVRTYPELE

[4] = molecular target: T4, NSP PDZ-GST fusion protein (Homo sapiens (Human), UniProt Q92743 370-466)
T4 construct: The label NSP is not explained in the excerpts
T4 sequence (Q92743 other isoform, or with tags, fused parts or gaps limits assumed): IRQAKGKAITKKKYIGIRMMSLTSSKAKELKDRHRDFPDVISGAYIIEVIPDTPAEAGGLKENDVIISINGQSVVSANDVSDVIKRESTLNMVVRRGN

[5] = molecular target: T5, K858 PDZ-GST fusion protein (Homo sapiens (Human), UniProt Q8WWI1 1038-1131)
T5 construct: Order of GST and PDZ part and limits not seen in the excerpts
T5 sequence: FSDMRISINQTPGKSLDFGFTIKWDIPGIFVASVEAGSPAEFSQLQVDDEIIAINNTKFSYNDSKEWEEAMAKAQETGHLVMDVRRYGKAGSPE

[6] = molecular target: T6, GST-KIAA0303 PDZ domain fusion protein (Homo sapiens (Human), UniProt O15021 1138-1228)
T6 construct: also called K303; not shown: glutathione S-transferase encoded by vector pGEX-3X (Pharmacia)
T6 sequence: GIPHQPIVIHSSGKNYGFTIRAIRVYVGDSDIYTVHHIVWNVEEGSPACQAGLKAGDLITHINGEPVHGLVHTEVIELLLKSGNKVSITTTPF

[7] = molecular target: T7, GST-AF6 PDZ domain fusion protein (Homo sapiens (Human), UniProt P55196 1001-1093)
T7 construct: also called af-6 protein; not shown: glutathione S-transferase encoded by vector pGEX-3X (Pharmacia)
T7 sequence: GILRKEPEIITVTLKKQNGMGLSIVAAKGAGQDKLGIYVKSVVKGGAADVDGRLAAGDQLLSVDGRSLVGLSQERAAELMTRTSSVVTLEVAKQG

[8] = molecular target: T8, SP short PDZ-GST fusion protein (Homo sapiens (Human), UniProt O43464 350-435)
T8 construct: The label SP short is not explained in the excerpts
T8 sequence: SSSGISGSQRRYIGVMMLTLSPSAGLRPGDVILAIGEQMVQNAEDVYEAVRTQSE

[9] = molecular target: T9, PICK1 PDZ-GST fusion protein (Bos taurus (Bovine), UniProt Q2T9M1 17-105)
T9 construct: Order of GST and PDZ part and limits not seen in the excerpts
T9 sequence (Q2T9M1 other isoform, or with tags, fused parts or gaps limits assumed): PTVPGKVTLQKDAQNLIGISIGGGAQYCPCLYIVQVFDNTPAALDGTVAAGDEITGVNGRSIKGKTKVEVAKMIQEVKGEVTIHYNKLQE

[10] = molecular target: T10, GST-DVL1 PDZ domain fusion protein (human, UniProt O14640 247-339)
T10 construct: also called human dishevelled segment polarity protein homolog; not shown: glutathione S-transferase encoded by vector pGEX-3X (Pharmacia)
T10 sequence: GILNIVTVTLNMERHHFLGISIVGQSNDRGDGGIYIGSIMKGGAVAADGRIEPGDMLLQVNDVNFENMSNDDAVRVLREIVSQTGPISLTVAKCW

[11] = molecular target: T11, MINT3 PDZ-GST fusion protein
T11 construct: Order of GST and PDZ part and limits not seen in the excerpts
T11 chain: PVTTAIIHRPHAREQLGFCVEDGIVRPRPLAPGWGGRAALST

[12] = molecular target: T12, K316 PDZ-GST fusion protein (Homo sapiens (Human), UniProt Q14CM0 72-159)
T12 construct: Order of GST and PDZ part and limits not seen in the excerpts
T12 sequence (Q14CM0 72-159 limits assumed): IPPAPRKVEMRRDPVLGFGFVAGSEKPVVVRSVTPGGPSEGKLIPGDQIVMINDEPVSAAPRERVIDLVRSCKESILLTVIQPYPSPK

[13] = molecular target: T13, GEF PDZ-GST fusion protein (Homo sapiens (Human), UniProt Q8TEU7 293-400)
T13 construct: The label GEF is not explained in the excerpts
T13 sequence: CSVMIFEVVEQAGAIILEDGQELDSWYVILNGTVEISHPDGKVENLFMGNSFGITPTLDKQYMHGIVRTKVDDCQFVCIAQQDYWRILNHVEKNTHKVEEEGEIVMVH

[14] = molecular target: T14, GST-LIM protein PDZ domain fusion protein (Human, UniProt Q96HC4 2-85)
T14 construct: also called Human LIM protein; not shown: glutathione S-transferase encoded by vector pGEX-3X (Pharmacia)
T14 sequence: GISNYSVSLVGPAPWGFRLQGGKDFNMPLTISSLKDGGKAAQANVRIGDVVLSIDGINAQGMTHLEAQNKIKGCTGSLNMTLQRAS

[15] = molecular target: T15, TAX-IP33 PDZ-GST fusion protein (Homo sapiens (Human), UniProt O14910 103-193)
T15 construct: Order of GST and PDZ part and limits not seen in the excerpts
T15 sequence: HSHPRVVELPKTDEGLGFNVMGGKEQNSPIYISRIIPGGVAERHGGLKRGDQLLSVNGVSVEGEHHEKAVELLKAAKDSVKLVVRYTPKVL

[16] = molecular target: T16, GST-DLG5 (p-dlg) PDZ domain fusion protein (Human, UniProt Q8TDM6 1343-1583)
T16 construct: also called Human discs large protein p-dlg; not shown: glutathione S-transferase encoded by vector pGEX-3X (Pharmacia)
T16 sequence: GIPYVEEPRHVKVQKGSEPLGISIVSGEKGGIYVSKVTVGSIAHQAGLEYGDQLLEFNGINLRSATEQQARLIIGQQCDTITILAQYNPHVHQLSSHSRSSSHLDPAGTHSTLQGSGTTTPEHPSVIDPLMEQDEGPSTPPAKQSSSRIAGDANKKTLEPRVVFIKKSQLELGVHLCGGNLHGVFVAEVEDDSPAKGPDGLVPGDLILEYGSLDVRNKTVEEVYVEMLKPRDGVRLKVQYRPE

Measured: binding result

B1: CD166 C-terminal peptide AA20L, biotinylated (peptide)
peptide: Biotin-DLGNMEENKKLEENNHKTEA
notes: also called CD166 (CD6L)
no binding: all assays above

B2: BLR-1 C-terminal peptide AA45L, biotinylated (peptide)
peptide: Biotin-PSWRRSSLSESENATSLTTF
notes: also called CXCR5
no binding: all assays above

B3: CD95 (Fas) C-terminal peptide AA13L, biotinylated (peptide)
peptide: Biotin-KDITSDSENSNFRNEIQSLV
notes: also called CD95 (Apo-1/Fas); AAI3L
no binding: all assays above

B4: CD46 (Form 1) C-terminal peptide AA10L, biotinylated (peptide)
peptide: Biotin-KKGTYLTDETHREVKFTSL
no binding: all assays above

B5: DOCK2 C-terminal peptide AA40L, biotinylated (peptide)
peptide: Biotin-LASKSAEEGKQIPDSLSTDL
no binding: all assays above

B6: FceRIb C-terminal peptide AA25L, biotinylated (peptide)
peptide: Biotin-YSATYSELEDPGEMSPPIDL
notes: also called FceRlb; FcεRβI
no binding: all assays above

B7: CD83 C-terminal peptide AA47L, biotinylated (peptide)
peptide: Biotin-VTSPNKHLGLVTPHKTELV
no binding: all assays above

B8: CD3n C-terminal peptide AA4L, biotinylated (peptide)
peptide: Biotin-SVFSIPTLWSPWPPSSSSQL
notes: also called CD3η; CD3-eta
no binding: all assays above
